Assay: label from the status in PepcDB records

Sequence | protein production
NEHEYAYIMQTSGSTGKPKRIAVSYSNLHCYISQIDKLFPLNAQDRVGQYSDLTFDLSVHDIFYSLISGACLYVVPELAKLSPAEFIHHHQLTVWLSVPTVIELALQRQTLTPHSLPSLRLSFFCGQALLHDLAEQWQQATQQPVINLYGPTECTIAVTYHRFVAHSGMASV | failed
MRAPLSTYRRPQRTDFVTPTGGPFFAKQDKALNTIDLKMAHDLKLRGYRVKVAVVDEGVRSDHPLLNVEKKYGGDYMADGTRTYPDPKRQGRHGTSVALVLAGQDTDTYRGGVAPNADLYSANIGTRAGHVSDEAAFHAWNDLLGHGIKIFNNSFATEGPEGEQRVKEDRNEYHSAANKQNTYIGRLDRLVRDGALLIFAAGNGRPSGRAYSEVGSVGRTPRVEPHLQRGLIVVTAVDENGRLETWANRCGQAQQWCLAAPSTAYLPGLDKDNPDSIHVEQGTSLSAPLVTGAAVLVQDRFRWMDNDNLRTTLLTTAQDKGPYGVDPQYGWGVLDVGRAVQGPAQFAFGDFVARVTDTSTFGLEHHHHHH | failed
MAWNQPGNNGQDRDPWGSSKPGGNSEGNGNKGGRDQGPPDLDDIFRKLSKKLGGLGGGKGTGSGGGSSSQGPRPQLGGRVVTIAAAAIVIIWAASGFYTIKEAERGVVTRFGKFSHLVEPGLNWKPTFIDEVKPVNVEAVRELAASGVMLTSDENVVRVEMNVQYRVTNPEKYLYSVTSPDDSLRQATDSALRGVIGKYTMDRILTEGRTVIRSDTQRELEETIRPYDMGITLLDVNFQAARPPEEVKAAFDDAIAARENEQQYIREAEAYTNEVQPRANGQAQRILEEARAYKAQTILEAQGEVARFAKLLPEYKAAPEITRERLYIETMEKVLGNTRKVLVNDKGGNLMVLPLDQMLKGGNAPAAKSDNGASNLLRLPPASSSTTSGASNTSSTSQGDIMDQRRANAQRNDYQRQGE | failed
MKELTVPDTTPLLPIVDPFEQQDSEGPDSTKVYPFYRNLAEGKLTMQRCKSCGRIFYPPQAMCKHCNSTDYEWVEVPKRGKIHAFSALLLGFPMVIEEFAPFVIAVARFGDYPENGVQIVGAMFDVDYSELSIGDEVEWEILKIKGPGDKVRYWYHFRKVLEHHHHHH | failed
MQRLEVREPVPYPILVGEGVLKEVPPLAGPAALLFDRRVEGFAQEVAKALGVRHLLGLPGGEAAKSLEVYGKVLSWLAEKGLPRNATLLVVGGGTLTDLGGFVAATYLRGVAYLAFPTTTLAIVDASVGGKTGINLPEGKNLVGAFHFPQGVYAELRALKTLPLPTFKEGLVEAFKHGLIAGDEALLKVEDLTPQSPRLEAFLARAVAVKVRVTEEDPLEKGKRRLLNLGHTLGHALEAQTRHALPHGMAVAYGLLYAALLGRALGGEDLLPPVRRLLLWLSPPPLPPLAFEDLLPYLLRDKKKVSESLHWVVPLAPGRLVVRPLPEGLLREAFAAWREELKGLGLLR | not failed
MKQGKISDYVNPVPIKITDDKAIFKVEKLVPTPYIERVLPLEYAPLYEQLAELDTAIPKIVCLEKSDRLTVIEEYIDSPRLDQYLETHKLTSAQIHDLICQLLDVLAVLHQQIPPIIHRDIKPENIFYDGQKLILADFDIARNMQEDADRDTRILGSVGYAAPEQFGFSQSGPASDFYAVGVLMNVLYTGYLPSVRLYKGPEREIIEKATHINSQKRYQSAQEFKDAITGLGRSSWLLPGFRSHQPARMLTAGCGYLLMLFSSFSMDAKSDSAADSFLLRLSFFMVLFLIVLFACNYRNIKSICLFHSSKSKFTRACGIIISYLLVATVLTTALAALSVAISSFGH | failed
MLFSLKYLGMTLVEQPKGEELSAAAIKRIVATAKASGKKLQKVTLKVSPRGIILTDNLTNQLIENVSIYRISYCTADKMHDKVFAYIAQSQHNQSLECHAFLCTKRKMAQAVTLTVAQAFKVAFEFWQVSKEEKEKRDKASQEGGDVLGARQDCTPPLKSLVATGNLLDLEETAKAPLSTVSANTTNMDEVPRPQALSGSSVVWELDDGLDEAFSRLAQSRTNPQVLDTGLTAQDMHYAQCLSPVDWDKPDSSGTEQDDLFSF | failed
